Results on 5 molecules are retold here after PMC11863771 (Cell Communication and Signaling : CCS, 2025).

The target of one experiment is T1, CXCR4-Rluc8 (human, UniProt P61073 1-352).
T1 construct: C-X-C chemokine receptor type 4 (CXCR4), human cDNA from the Missouri S&T cDNA Resource Center; source: HEK293A, transiently transfected, in cells; not shown: Rluc8, C-terminal, kept
As to the kind of experiment: FRET or BRET; quantitative BRET saturation in HEK293A cells: fixed amount of Rluc8-tagged donor, increasing amounts of mCit-tagged acceptor, coelenterazine h 5 µM; no ligand, no further receptor coexpressed. The conditions noted are these: partners not purified. On the technique in general: In BRET a luciferase serves as donor, and the signal depends on an acceptor being close.

Experiment [1] deals with T2, CXCR4-Rluc8 (human), P61073.
T2 chain: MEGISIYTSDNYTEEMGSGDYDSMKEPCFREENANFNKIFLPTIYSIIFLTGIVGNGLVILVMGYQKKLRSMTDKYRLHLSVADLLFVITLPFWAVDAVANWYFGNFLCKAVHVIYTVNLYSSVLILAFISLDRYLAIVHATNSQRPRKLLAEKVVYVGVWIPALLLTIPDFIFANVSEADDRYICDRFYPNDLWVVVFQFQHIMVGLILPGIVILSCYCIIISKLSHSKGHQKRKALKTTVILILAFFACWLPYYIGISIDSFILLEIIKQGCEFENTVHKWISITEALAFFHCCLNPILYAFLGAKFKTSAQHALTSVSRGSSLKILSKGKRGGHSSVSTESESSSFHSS
Nature of the experiment: FRET or BRET; quantitative BRET saturation in HEK293A cells, CXCR4-Rluc8 and CXCR4-mCit, without S1P1, with CXCL12 (10 nM). The conditions noted are these: remark: other sources report otherwise.

For experiment [2] the target is unchanged. As to the kind of experiment: FRET or BRET; quantitative BRET saturation in HEK293A cells: fixed amount of Rluc8-tagged donor, increasing amounts of mCit-tagged acceptor, coelenterazine h 5 µM; no ligand, no further receptor coexpressed. The conditions noted are these: remark: other sources report otherwise.
Experiment [3] shares this target. As to the kind of experiment: FRET or BRET; quantitative BRET saturation in HEK293A cells, CXCR4-Rluc8 and CXCR4-mCit, with S1P1 coexpressed, with CXCL12 (10 nM). The conditions noted are these: remark: other sources report otherwise.
Experiment [4] has the same target. Nature of the experiment: FRET or BRET; quantitative BRET saturation in HEK293A cells, CXCR4-Rluc8 and CXCR4-mCit, with S1P1 coexpressed, vehicle. The conditions noted are these: remark: other sources report otherwise.
For experiment [5] the target is unchanged. As to the kind of experiment: FRET or BRET; quantitative BRET saturation in HEK293A cells: fixed amount of Rluc8-tagged donor, increasing amounts of mCit-tagged acceptor, coelenterazine h 5 µM; no ligand, no further receptor coexpressed. The conditions noted are these: remark: other sources report otherwise.

B1: mCit-tagged S1P1(TM4) (receptor, human)
chain: MGPTSVPLVKAHRSSVSDYVNYDIIVRHYNYTGKLNISADKENSIKLTSVVFILICCFIILENIFVLLTIWKTKKFHRPMYYFIGNLALSDLLAGVAYTANLLLSGATTYKLTPAQWFLREGSMFVALSASVFSLLAIAIERYITMLKMKLHNGNKRHRVFLLIGMCWLIAFTLGALPILGWNCLHNLPDCSTVLPLYHKHYILFCTTVFTLLLLSIVILYCRIYSLVRTRSRRLTFRKNISKASRSSEKSLALLKTVIIVLSVFIACWAPLFILLLLDVGCKVKTCDILFRAEYFLVLAVLNSGTNPIIYTLTNKEMRRAFIRIMSCCKCPSGDSAGKFKRPIIAGMEFSRSKSDNSSHPQKDEGDNPETIMSSGNVNSSS
notes: S1P1, human, the part before the printed TM4 stretch (SNNFRL...); TM4 of S1P3, human, put in place of TM4 of S1P1; S1P1, human, the part after the printed TM4 stretch (...ALSSCS); TM4 of S1P1 ([residues removed]) replaced with TM4 of S1P3; source: HEK293A, transiently transfected, in cells; not shown: mCitrine (mCit), C-terminal, kept
B1 returned a BRET50 in the experiment with CXCR4-Rluc8 of 7.19 ± 0.559.

B2: CXCR4-mCit, P61073 1-352 (receptor)
chain: T2 chain
As for B2, the BRET50 in experiment [1] is 9.53; in experiment [2] it was 15.6; in experiment [3], 20.1; in experiment [4] it was 22.8; in experiment [5], 2.74.

B3: mCit-tagged S1P3(TM4) (receptor, human)
chain: MATALPPRLQPVRGNETLREHYQYVGKLAGRLKEASEGSTLTTVLFLVICSFIVLENLMVLIAIWKNNKFHNRMYFFIGNLALCDLLAGIAYKVNILMSGKKTFSLSPTVWFLREGSMFVALGASTCSLLAIAIERHLTMIKMRPYDASNNFRLFLLISACWVISLILGGLPIMGWNCISALSSCSTILPLYSKKYIAFCISIFTAILVTIVILYARIYFLVKSSSRKVANHNNSERSMALLRTVVIVVSVFIACWSPLFILFLIDVACRVQACPILFKAQWFIVLAVLNSAMNPVIYTLASKEMRRAFFRLVCNCLVRGRGARASPIQPALDPSRSKSSSSNNSSHSPKVKEDLPHTAPSSCIMDKNAALQNGIFCN
notes: S1P3, human, the part before the printed TM4 stretch (NKRHRV...); TM4 of S1P1, human, put in place of TM4 of S1P3; S1P3, human, the part after the printed TM4 stretch (...NLPDCS); TM4 of S1P3 ([residues removed]) replaced with TM4 of S1P1; source: HEK293A, transiently transfected, in cells; not shown: mCitrine (mCit), C-terminal, kept
For the molecule B3, the BRET50 with CXCR4-Rluc8 turned out to be 12.7 ± 0.687.

B4: mCit-tagged S1P3(TM3) (receptor, human)
chain: MATALPPRLQPVRGNETLREHYQYVGKLAGRLKEASEGSTLTTVLFLVICSFIVLENLMVLIAIWKNNKFHNRMYFFIGNLALCDLLAGIAYKVNILMSGKKTFKLTPAQWFLREGSMFVALSASVFSLLAIAIERYITMLKMKLHNGNKRHRVFLLIGMCWLIAFTLGALPILGWNCLHNLPDCSTILPLYSKKYIAFCISIFTAILVTIVILYARIYFLVKSSSRKVANHNNSERSMALLRTVVIVVSVFIACWSPLFILFLIDVACRVQACPILFKAQWFIVLAVLNSAMNPVIYTLASKEMRRAFFRLVCNCLVRGRGARASPIQPALDPSRSKSSSSNNSSHSPKVKEDLPHTAPSSCIMDKNAALQNGIFCN
notes: S1P3, human, the part before the printed TM3 stretch (SLSPTV...); TM3 of S1P1, human, put in place of TM3 of S1P3; S1P3, human, the part after the printed TM3 stretch (...RPYDA); TM3 of S1P3 ([residues removed]) replaced with TM3 of S1P1; source: HEK293A, transiently transfected, in cells; not shown: mCitrine (mCit), C-terminal, kept
Molecule B4 showed a BRET50 with CXCR4-Rluc8 of 6.97 ± 0.473.

B5: mCit-tagged S1P1(TM3) (receptor, human)
chain: MGPTSVPLVKAHRSSVSDYVNYDIIVRHYNYTGKLNISADKENSIKLTSVVFILICCFIILENIFVLLTIWKTKKFHRPMYYFIGNLALSDLLAGVAYTANLLLSGATTYSLSPTVWFLREGSMFVALGASTCSLLAIAIERHLTMIKMRPYDASNNFRLFLLISACWVISLILGGLPIMGWNCISALSSCSTVLPLYHKHYILFCTTVFTLLLLSIVILYCRIYSLVRTRSRRLTFRKNISKASRSSEKSLALLKTVIIVLSVFIACWAPLFILLLLDVGCKVKTCDILFRAEYFLVLAVLNSGTNPIIYTLTNKEMRRAFIRIMSCCKCPSGDSAGKFKRPIIAGMEFSRSKSDNSSHPQKDEGDNPETIMSSGNVNSSS
notes: S1P1, human, the part before the printed TM3 stretch (KLTPAQ...); TM3 of S1P3, human, put in place of TM3 of S1P1; S1P1, human, the part after the printed TM3 stretch (...KLHNG); TM3 of S1P1 ([residues removed]) replaced with TM3 of S1P3; source: HEK293A, transiently transfected, in cells; not shown: mCitrine (mCit), C-terminal, kept
B5 yielded a BRET50 with CXCR4-Rluc8 of 7.24 ± 0.501.
